Key:
[1] = biological target: T1, Su(H);NICD;Mastermind (Mam) (Drosophila melanogaster;Drosophila …, UniProt P28159;P07207;P21519 98-523;1763-2412;87-307, ||); experiment: EMSA; both probes in the same reaction; 1 uM NICD/Mam; cooperative, less 2NCM complex than the mouse proteins; Native PAGE EMSA, LICOR Odyssey CLx imaging; equal amounts of both probes in one reaction; buffer, salt, pH and temperature not stated (as in Uhl 2010, 2016); conditions: protein: recombinant;recombinant;recombinant; copies: 1;1;1; label: 5' IRDye-800 on the complementary strand (primer S25)
Su(H) [2] = biological target: T2, Su(H) (Drosophila melanogaster, UniProt P28159 98-523); experiment: EMSA; both probes in the same reaction; Su(H) 10-320 nM, no co-activators; additive, slightly lower affinity than 2xCSL; Native PAGE EMSA, LICOR Odyssey CLx imaging; equal amounts of both probes in one reaction; buffer, salt, pH and temperature not stated (as in Uhl 2010, 2016); conditions: protein: recombinant; label: 5' IRDye-800 on the complementary strand (primer S25)
RBPJ (CSL);N1ICD;MAML1 [3] = biological target: T3, RBPJ (CSL);N1ICD;MAML1 (mouse;mouse;human, UniProt P31266;Q01705;Q92585 53-474;1744-2113;1-280, ||); experiment: EMSA; both probes in the same reaction; 1 uM NICD/MAML; cooperative, both sites preferentially filled; Native PAGE EMSA, LICOR Odyssey CLx imaging; equal amounts of both probes in one reaction; buffer, salt, pH and temperature not stated (as in Uhl 2010, 2016); conditions: protein: recombinant;recombinant;recombinant; copies: 1;1;1; label: 5' IRDye-800 on the complementary strand (primer S25)
RBPJ (CSL) [4] = biological target: T4, RBPJ (CSL) (mouse, UniProt P31266 53-474); experiment: EMSA; both probes in the same reaction; RBPJ 10-320 nM, no co-activators; additive, slightly lower affinity than 2xCSL; Native PAGE EMSA, LICOR Odyssey CLx imaging; equal amounts of both probes in one reaction; buffer, salt, pH and temperature not stated (as in Uhl 2010, 2016); conditions: protein: recombinant; label: 5' IRDye-800 on the complementary strand (primer S25)
Su(H) [5] = biological target: T2, Su(H); experiment: EMSA; both probes in the same reaction; Su(H) 10-320 nM, no co-activators; additive, slightly higher affinity than 1xSPS; Native PAGE EMSA, LICOR Odyssey CLx imaging; equal amounts of both probes in one reaction; buffer, salt, pH and temperature not stated (as in Uhl 2010, 2016); conditions: protein: recombinant; label: 5' IRDye-700 on the complementary strand (primer S25)
RBPJ (CSL) [6] = biological target: T4, RBPJ (CSL); experiment: EMSA; both probes in the same reaction; RBPJ 10-320 nM, no co-activators; additive, slightly higher affinity than 1xSPS; Native PAGE EMSA, LICOR Odyssey CLx imaging; equal amounts of both probes in one reaction; buffer, salt, pH and temperature not stated (as in Uhl 2010, 2016); conditions: protein: recombinant; label: 5' IRDye-700 on the complementary strand (primer S25)
RBPJ (CSL);N1ICD;MAML1 [7] = biological target: T3, RBPJ (CSL);N1ICD;MAML1; experiment: EMSA; both probes in the same reaction; 1 uM NICD/MAML; additive, not cooperative, less preferred than 1xSPS; Native PAGE EMSA, LICOR Odyssey CLx imaging; equal amounts of both probes in one reaction; buffer, salt, pH and temperature not stated (as in Uhl 2010, 2016); conditions: protein: recombinant;recombinant;recombinant; copies: 1;1;1; label: 5' IRDye-700 on the complementary strand (primer S25)
[8] = biological target: T1, Su(H);NICD;Mastermind (Mam); experiment: EMSA; both probes in the same reaction; 1 uM NICD/Mam; additive, not cooperative, less preferred than 1xSPS; Native PAGE EMSA, LICOR Odyssey CLx imaging; equal amounts of both probes in one reaction; buffer, salt, pH and temperature not stated (as in Uhl 2010, 2016); conditions: protein: recombinant;recombinant;recombinant; copies: 1;1;1; label: 5' IRDye-700 on the complementary strand (primer S25)

Measured: binding result

T1 sequence (P28159 98-523, chain 1 of 3): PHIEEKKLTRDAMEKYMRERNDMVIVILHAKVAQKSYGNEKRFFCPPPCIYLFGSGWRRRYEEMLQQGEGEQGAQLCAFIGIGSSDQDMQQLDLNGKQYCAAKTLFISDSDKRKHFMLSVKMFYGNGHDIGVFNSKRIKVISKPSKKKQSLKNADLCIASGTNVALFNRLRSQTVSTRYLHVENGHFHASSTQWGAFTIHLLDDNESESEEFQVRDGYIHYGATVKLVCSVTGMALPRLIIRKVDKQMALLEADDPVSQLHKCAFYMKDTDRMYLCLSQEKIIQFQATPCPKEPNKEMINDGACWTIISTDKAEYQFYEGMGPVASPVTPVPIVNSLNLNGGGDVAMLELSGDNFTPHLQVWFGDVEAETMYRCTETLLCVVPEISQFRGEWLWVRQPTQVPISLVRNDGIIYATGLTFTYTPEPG
T1 sequence (P07207 1763-2412, chain 2 of 3): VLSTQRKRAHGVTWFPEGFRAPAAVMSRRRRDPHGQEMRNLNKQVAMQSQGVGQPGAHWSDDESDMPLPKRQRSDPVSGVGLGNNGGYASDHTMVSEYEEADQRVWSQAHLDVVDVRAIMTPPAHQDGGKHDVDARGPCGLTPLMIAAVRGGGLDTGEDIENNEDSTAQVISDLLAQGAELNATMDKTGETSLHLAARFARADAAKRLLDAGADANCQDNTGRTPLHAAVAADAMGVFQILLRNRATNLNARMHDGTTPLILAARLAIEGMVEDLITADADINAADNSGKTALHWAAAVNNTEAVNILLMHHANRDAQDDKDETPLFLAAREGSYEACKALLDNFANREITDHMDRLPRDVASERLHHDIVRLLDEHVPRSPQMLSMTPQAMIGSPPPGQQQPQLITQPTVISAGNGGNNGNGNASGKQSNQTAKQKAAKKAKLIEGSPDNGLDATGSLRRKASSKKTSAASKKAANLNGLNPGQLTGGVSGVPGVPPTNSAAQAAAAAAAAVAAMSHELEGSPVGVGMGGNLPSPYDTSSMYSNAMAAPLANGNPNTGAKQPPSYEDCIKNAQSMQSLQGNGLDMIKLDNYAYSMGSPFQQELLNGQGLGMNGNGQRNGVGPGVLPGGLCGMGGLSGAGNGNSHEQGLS
T1 sequence (P21519 87-307, chain 3 of 3): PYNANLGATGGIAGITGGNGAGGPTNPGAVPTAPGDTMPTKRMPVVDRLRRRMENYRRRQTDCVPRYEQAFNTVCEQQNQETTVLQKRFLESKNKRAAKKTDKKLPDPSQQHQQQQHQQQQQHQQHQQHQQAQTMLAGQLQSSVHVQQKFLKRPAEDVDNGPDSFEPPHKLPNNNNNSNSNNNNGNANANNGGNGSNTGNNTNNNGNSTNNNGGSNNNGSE
T2 sequence (P28159 98-523): as the sequence (P28159 98-523, chain 1 of 3) above
T3 sequence (P31266 53-474, chain 1 of 3): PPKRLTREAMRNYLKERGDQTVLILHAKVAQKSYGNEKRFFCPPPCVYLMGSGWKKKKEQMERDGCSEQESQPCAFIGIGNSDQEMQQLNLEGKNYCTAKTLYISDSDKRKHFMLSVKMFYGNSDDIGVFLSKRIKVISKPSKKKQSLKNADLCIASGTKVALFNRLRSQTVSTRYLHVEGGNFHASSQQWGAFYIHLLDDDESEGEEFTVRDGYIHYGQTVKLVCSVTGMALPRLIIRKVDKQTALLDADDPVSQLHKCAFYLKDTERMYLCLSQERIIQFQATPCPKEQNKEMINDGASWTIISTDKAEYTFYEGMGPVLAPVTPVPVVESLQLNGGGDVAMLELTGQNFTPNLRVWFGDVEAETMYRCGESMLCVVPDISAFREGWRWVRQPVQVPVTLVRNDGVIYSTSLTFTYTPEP
T3 sequence (Q01705 1744-2113, chain 2 of 3): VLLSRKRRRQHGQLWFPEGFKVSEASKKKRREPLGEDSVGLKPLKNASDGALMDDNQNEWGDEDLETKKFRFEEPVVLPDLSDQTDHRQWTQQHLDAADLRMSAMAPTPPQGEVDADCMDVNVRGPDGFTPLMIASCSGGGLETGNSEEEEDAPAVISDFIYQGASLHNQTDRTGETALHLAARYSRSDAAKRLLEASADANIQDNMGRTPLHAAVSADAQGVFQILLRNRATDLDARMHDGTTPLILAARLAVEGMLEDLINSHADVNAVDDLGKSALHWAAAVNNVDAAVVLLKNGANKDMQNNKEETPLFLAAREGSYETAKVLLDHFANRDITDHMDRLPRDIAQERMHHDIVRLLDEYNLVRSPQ
T3 sequence (Q92585 1-280, chain 3 of 3): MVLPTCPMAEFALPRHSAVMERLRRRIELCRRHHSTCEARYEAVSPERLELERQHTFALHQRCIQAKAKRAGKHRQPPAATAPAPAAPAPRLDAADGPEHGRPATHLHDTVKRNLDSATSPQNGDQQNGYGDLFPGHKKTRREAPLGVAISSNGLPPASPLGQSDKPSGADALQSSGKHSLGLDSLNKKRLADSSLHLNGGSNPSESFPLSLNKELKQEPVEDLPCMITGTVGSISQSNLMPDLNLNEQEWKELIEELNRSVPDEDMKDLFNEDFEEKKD
T4 sequence (P31266 53-474): as the sequence (P31266 53-474, chain 1 of 3) above

B1: 1xSPS EMSA probe (dsDNA)
DNA 1: GCTACGTGGGAAAGGAGCAAACTGCGTTTCCCACGTTCGTAGTGCGGGCGTGGCT
DNA 2: AGCCACGCCCGCACTACGAACGTGGGAAACGCAGTTTGCTCCTTTCCCACGTAGC
binds: [1] | Su(H) [2] | RBPJ (CSL);N1ICD;MAML1 [3] | RBPJ (CSL) [4]

B2: 2xCSL EMSA probe (dsDNA)
DNA 1: CGAACGTGGGAAACCTAGGCTAGAGGCACCGTGGGAAACTAGTGCGGGCGTGGCT
DNA 2: AGCCACGCCCGCACTAGTTTCCCACGGTGCCTCTAGCCTAGGTTTCCCACGTTCG
binds: Su(H) [5] | RBPJ (CSL) [6] | RBPJ (CSL);N1ICD;MAML1 [7] | [8]

— publication PMC7213981, “Enhancer architecture sensitizes cell specific responses to Notch gene dose via a bind and discard mechanism”
